Assay results as given in publication PMC5780489 (2018).

Assays:
[1] = biological target: T1, PABPC1 RRM1/2/3/4 (residues 1-370) (human, UniProt P11940 1-370); experiment: NMR; RRM1/2/3/4 bound to A24 RNA; T438 signal
[2] = biological target: T1, PABPC1 RRM1/2/3/4 (residues 1-370); experiment: NMR; RRM1/2/3/4 bound to A24 RNA; W437 signal

T1 sequence (P11940 1-370): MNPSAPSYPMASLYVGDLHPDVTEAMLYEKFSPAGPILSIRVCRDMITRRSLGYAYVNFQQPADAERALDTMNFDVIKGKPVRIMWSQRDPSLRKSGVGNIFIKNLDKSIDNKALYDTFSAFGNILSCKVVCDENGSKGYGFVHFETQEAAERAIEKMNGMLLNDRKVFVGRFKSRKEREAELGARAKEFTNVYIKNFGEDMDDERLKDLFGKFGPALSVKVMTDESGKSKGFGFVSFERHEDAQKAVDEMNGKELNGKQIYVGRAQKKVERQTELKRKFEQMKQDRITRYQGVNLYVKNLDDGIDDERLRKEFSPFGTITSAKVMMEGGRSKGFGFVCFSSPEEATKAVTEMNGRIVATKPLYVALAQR

- Kd [1]: 24 µM
- Kd [2]: 12 µM
B1: PABPC1 linker fragment Lt2 (residues 421-470) (peptide)
chain: AYYPPSQIAQLRPSPRWTAQGARPHPFQNMPGAIRPAAPRPPFSTMRPAS
